# Target: POTRA1, 2 construct of BamA (E. coli)
# Assay: SPR; Biacore T100; POTRA1, 2 immobilised by amine coupling to a CM5 chip; SurA flowed at 0 to 10 mg/ml; 25 mM MES, 150 mM NaCl, pH 6.5, 25°C
substance,measurement,value
"survival protein A (SurA), without the signal sequence (amino acids 21 to 428) (from UniProt P0ABZ6 21-428) (natural protein)",Kd,16 µM
